Patent publication US20240343811A1 (SHANDONG SIMCERE BIOPHARMACUTICAL, published 2024)
Residue numbers refer to the chain shown, from its start. Each block holds one binder with its values, some of them ahead of it.

Experiments:
[1] = biological target: T1, human CD16a (158F), full length, on FlpinCHO cells (human, UniProt P08637 17-254); assay: FACS, biotinylated antibody
Target sequence in this assay (P08637 17-254 limits assumed): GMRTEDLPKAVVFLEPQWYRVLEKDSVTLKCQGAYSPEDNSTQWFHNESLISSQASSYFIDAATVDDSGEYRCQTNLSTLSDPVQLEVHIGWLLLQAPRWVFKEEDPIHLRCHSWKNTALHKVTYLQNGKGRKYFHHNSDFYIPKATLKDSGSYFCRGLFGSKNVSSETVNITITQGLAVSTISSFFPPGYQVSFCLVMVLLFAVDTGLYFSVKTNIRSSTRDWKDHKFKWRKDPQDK

[2] = biological target: T2, human CD16a (158V), full length, on cells (human, UniProt P08637 17-254); assay: FACS, biotinylated antibody
T2 construct: also used as target for the bought Jurkat-NFAT reporter line stably expressing human CD16a (158V); also called FlpinCHO-human CD16a (158V); FlpinCHO-CD16a (158V)
Target sequence in this assay (P08637 17-254 F176V limits assumed): as the sequence (P08637 17-254 limits assumed) above, with F160V counted along it

[3] = biological target: T1, human CD16a (158F), full length, on …; assay: FACS on FlpinCHO cells
Procedure, shortened: (§1)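 EC50 comes from fitted concentration–MFI curves. Antibody dilutions were bound to the cells for 1 hour on ice in PBS blocking buffer with 2% BSA, followed by washing and flow cytometric readout.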

[4] = biological target: T2, human CD16a (158V), full length, on …; assay: FACS on FlpinCHO cells
Procedure, shortened: as §1

[5] = biological target: T1, human CD16a (158F), full length, on …; assay: FACS, biotinylated antibody, +10 mg/mL human immunoglobulin
Target sequence in this assay (P08637 17-254 limits assumed): as the sequence (P08637 17-254 limits assumed) above

[6] = biological target: T2, human CD16a (158V), full length, on …; assay: as above
Target sequence in this assay (P08637 17-254 F176V limits assumed): as the sequence (P08637 17-254 limits assumed) above, with F160V counted along it

[7] = biological target: T3, Cynomolgus monkey CD16-his (cynomolgus monkey); assay: SPR (Biacore), antibody captured on Protein A
T3 construct: entry holds ECD, AVI tag, linker and His tag; also called cyno CD16-ECD his; Cyno CD16
T3 chain: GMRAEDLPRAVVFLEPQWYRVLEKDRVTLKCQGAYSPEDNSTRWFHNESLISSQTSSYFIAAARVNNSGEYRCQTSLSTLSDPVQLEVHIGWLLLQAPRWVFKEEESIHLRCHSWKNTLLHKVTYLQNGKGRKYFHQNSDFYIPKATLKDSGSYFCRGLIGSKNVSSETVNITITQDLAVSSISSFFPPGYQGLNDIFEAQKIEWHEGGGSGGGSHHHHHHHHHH
Procedure, shortened: (§2)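 Protein A–captured antibody was probed with CD16-his ECD in HBS-EP+ at 25 °C: five 2-fold dilutions from 200 nM, 240 s at 30 μL/min, dissociation up to 600 s. Glycine pH 1.5 regenerated the chip. Apparent KD came from a double-referenced 1:1 Langmuir fit.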

[8] = biological target: T4, Human CD16b (NA2)-his (human); assay: SPR (Biacore), antibody captured on Protein A
T4 construct: entry holds ECD, linker, His tag and AVI tag
T4 chain: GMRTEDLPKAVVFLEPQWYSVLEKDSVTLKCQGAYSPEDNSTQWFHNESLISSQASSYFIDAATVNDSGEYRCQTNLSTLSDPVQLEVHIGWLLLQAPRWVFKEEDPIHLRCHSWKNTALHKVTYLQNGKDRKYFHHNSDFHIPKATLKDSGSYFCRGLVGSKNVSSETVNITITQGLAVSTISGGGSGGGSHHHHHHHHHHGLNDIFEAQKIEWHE
Procedure, shortened: as §2

EC50 [1]: 0.2 nM | Maximum mean fluorescence intensity [1]: 7240 | EC50 [2]: 0.36 nM | Maximum mean fluorescence intensity [2]: 10700 | EC50 [3]: 0.28 nM | Maximum mean fluorescence intensity [3]: 5670 | EC50 [4]: 0.33 nM | Maximum mean fluorescence intensity [4]: 6240 | EC50 [5]: 0.75 nM | Maximum mean fluorescence intensity [5]: 6720 | EC50 [6]: 1.12 nM | Maximum mean fluorescence intensity [6]: 10800 | Kd [7]: 23.6 nM | koff [7]: 0.015 s⁻¹ | kon [7]: 633000 M⁻¹ s⁻¹ | Kd [8]: 4920 nM | koff [8]: 0.2 s⁻¹ | kon [8]: 40700 M⁻¹ s⁻¹
B1: VHH11 VHH-Fc antibody (Fc fusion)
chain: EVQVVESGGGLAQAGGSLRLSCAVSGITFSSYAMGWYRQDPGKQRELVAAINRFGLTNYADSVKGRFTISRDNAKNTVYLQMTSLKPEDTAVYYCNTGGVYSHPNYYTGTYWGQGTQVTVSSEPKSSDKTHTCPPCPAPEFEGGPSVFLFPPKPKDTLMISRTPEVTCVVVAVSHEDPEVKFNWYVDGVEVHNAKTKPREEQYNSTYRVVSVLTVLHQDWLNGKEYKCKVSNKALPAPIEKTISKAKGQPREPQVYTLPPSREEMTKNQVSLTCLVKGFYPSDIAVEWESNGQPENNYKTTPPVLDSDGSFFLYSKLTVDKSRWQQGNVFSCSVMHEALHNHYTQKSLSLSPGK

EC50 [1]: 0.12 nM | Maximum mean fluorescence intensity [1]: 5410 | EC50 [2]: 0.16 nM | Maximum mean fluorescence intensity [2]: 7950 | EC50 [3]: 0.16 nM | Maximum mean fluorescence intensity [3]: 6090 | EC50 [4]: 0.21 nM | Maximum mean fluorescence intensity [4]: 6680 | EC50 [5]: 0.81 nM | Maximum mean fluorescence intensity [5]: 5310 | EC50 [6]: 0.97 nM | Maximum mean fluorescence intensity [6]: 8140 | Kd [7]: 8.51 nM | koff [7]: 0.0101 s⁻¹ | kon [7]: 1.18e+06 M⁻¹ s⁻¹ | Kd [8]: 1050 nM | koff [8]: 0.0998 s⁻¹ | kon [8]: 95100 M⁻¹ s⁻¹
B2: VHH12 VHH-Fc antibody (Fc fusion)
chain: B1 chain with E1Q, V4L, A12V, V24A, D40A, S62F, D72V, N105D

EC50 [1]: 0.39 nM | Maximum mean fluorescence intensity [1]: 9740 | EC50 [2]: 0.79 nM | Maximum mean fluorescence intensity [2]: 13300 | EC50 [3]: 0.58 nM | Maximum mean fluorescence intensity [3]: 7070 | EC50 [4]: 0.66 nM | Maximum mean fluorescence intensity [4]: 8110 | EC50 [5]: 1.66 nM | Maximum mean fluorescence intensity [5]: 10700 | EC50 [6]: 1.77 nM | Maximum mean fluorescence intensity [6]: 14500
B3: VHH06 VHH-Fc antibody (Fc fusion)
chain: EVQLVESGGGLVQAGGSLRLSCVASGSTWTTYAVRWYRQAPGKQREWVAFISVDGSTNYPDSVKGRFIVSRDNAKNTVYLQMNSLKPEDTADYICRVGGQYWGQGTQVTVSSEPKSSDKTHTCPPCPAPEFEGGPSVFLFPPKPKDTLMISRTPEVTCVVVAVSHEDPEVKFNWYVDGVEVHNAKTKPREEQYNSTYRVVSVLTVLHQDWLNGKEYKCKVSNKALPAPIEKTISKAKGQPREPQVYTLPPSREEMTKNQVSLTCLVKGFYPSDIAVEWESNGQPENNYKTTPPVLDSDGSFFLYSKLTVDKSRWQQGNVFSCSVMHEALHNHYTQKSLSLSPGK
